Experimental data taken from patent US20120021923.

## prostate-specific antigen (PSA)
SKLQ-aluc
  turnover rate by PSA: SKLQ on the other had appears to have a very slow turnover compared to KGISSQY and to be highly specific to PSA
Ac-KGISSQY-AFC
  Km (PSA-A buffer): the Km value is estimated to be 1.73 mM
  Km (PSA-B buffer): the Km value is estimated to be 0.47 mM
  Vmax (PSA-A buffer): the Vmax is estimated to be 3.7 RLU/sec
  Vmax (PSA-B buffer): the Vmax is estimated to be 2.33 RLU/sec
  turnover rate by PSA: the substrate of KGISSQY has a much higher turnover rate by PSA as compared to SKLQ
